This note sets out measurements from paper PMC3632125 (Nucleic Acids Research, 2013).

The target in data set [1] is T1, Csm2;Psy3 (Saccharomyces cerevisiae;Saccharomyces …, UniProt P40465;Q12318 1-213;1-242, |).
T1 sequence 1: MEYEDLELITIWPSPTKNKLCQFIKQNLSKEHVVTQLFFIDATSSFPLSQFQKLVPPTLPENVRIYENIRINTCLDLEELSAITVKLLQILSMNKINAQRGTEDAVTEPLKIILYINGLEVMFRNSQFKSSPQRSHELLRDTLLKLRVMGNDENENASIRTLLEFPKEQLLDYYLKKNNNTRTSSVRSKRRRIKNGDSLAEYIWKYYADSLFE
T1 sequence 2: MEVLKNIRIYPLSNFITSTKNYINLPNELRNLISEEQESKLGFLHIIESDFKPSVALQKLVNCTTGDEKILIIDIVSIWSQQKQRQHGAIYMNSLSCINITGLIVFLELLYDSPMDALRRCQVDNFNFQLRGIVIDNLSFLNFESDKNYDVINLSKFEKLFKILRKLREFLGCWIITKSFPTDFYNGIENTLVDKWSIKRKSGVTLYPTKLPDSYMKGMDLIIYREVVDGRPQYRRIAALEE
Nature of the data set: fluorescence anisotropy.

In another data set the target is T2, Psy3 (S. cerevisiae, UniProt Q12318 1-242).
T2 sequence: T1 sequence 2
Nature of the data set: SEC.

Data set [2] addresses T1, Csm2;Psy3. The data set can be described thus: competition.

B1: fluorescein-labelled fork (mixed)
DNA 1: TTTTTTTTTTTTTTTTTTTTCTTGACAAGCTTGCGCACT
DNA 2: AGTGCGCAAGCTTGTCAAGGCACTTTTTTTTTTTTTTTT
For B1, the Kd in the data set with Csm2;Psy3 [1] turned out to be 361 ± 10.9 nM.

B2: Csm2 (natural protein)
chain: T1 sequence 1
As to B2, in the data set with Psy3, the binding result was “binds”.

B3: 3'-overhang (mixed)
DNA 1: CTGCGAGCTCGAATTCACTGGAGTGACCTC
DNA 2: GAGGTCACTCCAGTGAATTCGAGCTCGCAGTGTCTAGGTCGTGACTTTGA
Consider B3, for which, in the data set with Csm2;Psy3 [2], the binding result is reported as “binds”.
